From the nanobody polyreactivity screen of Harvey et al. (2022)

assay: yeast display, Sf9 membrane polyspecificity reagent, FACS + sequencing; frameworks hold sequencing errors
Outline: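 Galactose-induced (36–48 hours) yeast carrying a synthetic nanobody display library were exposed to 10% biotinylated, detergent-solubilized Sf9 membrane reagent at 4 °C for 1 hour. FACS followed streptavidin microbead enrichment, using low and high (top ~1%) gates for expression (anti-HA) and reagent binding (streptavidin). Colony PCR, MiSeq 2 × 250 sequencing and CDR-length filtering followed. Labels for polyreactivity reflect the gate of origin.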

Sequence | polyreactivity (PSR sort gate)
QVQLVESGGGLVQAGGSLRLSCAASGRTFIVNTMRWYRQAPGKDRELVAAITARGGRTYYADSEKGRFTISRDNAKNTVYLQLNSLKPEDTAVYYCNARTPPREAERYYWGQGTQVTVSS | low polyreactivity
QLQLVESGRGLVQAGGSLRLSCAGSGFIVGYNAMGSYRQAPGKDRELVAAISSGGSTYYADSVKGRFTISRVNAKNTVYLQMNSLKPEDTAVYYCAVELGYPIQSYALWWDFEYWGQGTQVTVSS | low polyreactivity
QVQLVETGGGLVQAGGSLRLSSAASGGIFSPNAMGWYRQAPGKEREFVAAISSNGGSTNYADSVKGRFTISRDNAKNTVYLQMNSLKPEDTAVYYCAADYPDHPLWGPEYDYWGQRTQVTVSS | low polyreactivity
QVQLVESGGGLFQEGGSLRLSCAASGIISKYYAMGWYRQAPGKERELVAAITRSGTSTYYADSVKGRFTISRDNAKNSVYLQMNSLKPEDTAVYYCAAVSGGRTPRYDYWGQGTQVTVSS | high polyreactivity
QVQLVDSGGGLVQAGVRLRLSCAASGNIFSAYAMGWYRQAPGKERELVASIDWNGGRTYYADSVKGRFTISRDNAKNTVYLQMNSLKPEDTAVYYCNAGYSYRKYDYLGQGTQVTVSS | high polyreactivity
QVQLEESGGGLVQAGGSLRLICAASGRTFVYYAMGWYRQAPGKERELVAAISTGGSTNYADSVKGRFTISRDNAKNTVYLQMNSLKTEDTAVYYCAAQYYISISKYDYWGQGTQVTVSS | low polyreactivity
QVQLVESGGGLVQAGGSLRISCAASGSIFLKYAMGWYRQAPGKERELVAAITWTDDRTYYADSVKGRFTISRDNAKNTVYLQMNSLKPEDTAVYYCNTATSKSSYRHYDYWGQGTQVTVSS | high polyreactivity
QVQLVESGGGLVQEGGSLRLSCSASGRIFGSYAMGWNRPATGKERELVAAINSSGGRTYYADSVKGRFTISRDNAKNTVYLQMNSLKPDVTAVYYCNARRVYSQRYDYWGQGTQVTVSS | high polyreactivity
QVQLVESGGGLVQAGGSLRLSCAASGFTFAVYVMGWSRQAPGKERELVATISFSVGSTYYADSVKRRFTISRDNAKNTVYLQMNSLKPEDTAVYYCNADPPPEYYPDKDNYWGQGTQVTVSS | low polyreactivity
QVQLVESGGGLVQAGGSLRLSCAASGLTFGWNAMGWYRQAPGKERELVAGITSDTITHYADSVKGRFTISRDNAKNTVYLQMNSLKPEDTAVYYCAVPRGVASLQKVEFGYWGQGTQVTVSS | low polyreactivity
QVQLVESGGGLVQAGGSLRLSCAASGSIFVSYARGWYRQAPGKERELVAAITGRTGSTYYADSVKGRFTISRDNAKNTVYLQMNSLKAEDTGVYYCAARHKQHNRYDYWGQGTKVTVSS | low polyreactivity
QVQLVESGGGLVLAGGRLRLSCAASGRTFYVYTMGWYRQAPGKEWELVAGISYSGGSTYYADSVMGRFTISRDNAKNTVYLQMNSLKPEDTAVYYCNAELYCPYFDGKTRHGGYWGQGTQVTVSS | low polyreactivity
QVQLVESGGGLVQAGGSLRLSCAASGFIFGYYTMGWYRQAPGKEREVVAAISSSGGRTYYADSVKGRFTISRDNAKNTVYLQMNSLKPEDTAVYYCAKQNRGSEPAYDYWGQGTQVTVSS | low polyreactivity
QVQLVESGGGLVQAGGSLRLSCAASGRIFQSNAMGWYRQAPGKERELVAAISYSGGSTYYADSVKGRFTISRDNAKNTVYLQMNSLKPEDTAVYYCAADIFSPAFDYWGQGTQVTVSS | low polyreactivity
QVQLVESGGGLVQAGGSLRLSCAASGYIFYHNTMGWYRQEPGKERELVAAITIGGRTYYADSVKGRFTISRDNAKNTVYLQMNSLKPEDTAVYYCATASYRNPSDYWGQGTQVSVSS | high polyreactivity
QVQLVESGGCLVQAGGSLRLSCAASGSTFWPYAMGWYRQAPGKERELVAAITSSGGSTYYADSVKGRFTISRDNAKNTVYLQMNSLKPEDTEVYYCAADWSNLGAYDYWGQGTQVTVSS | low polyreactivity
QVQLVESGGGLVQAGGSLRLSCAASGSIFTVYAMGWYRQAPGKERELVAAINWSDGDTYYADSVKGRFTISRDNAKNTVYLQMNSLKPEDTAVYYCAAEGIYLILWYGYVEYDYWGQGTQVTVSS | low polyreactivity
HVQLVETGGGLVQAGGSLRLSCAASGSTFYIYAMGCYRPAPGKEREFVAAIDFSGSSTYADSVKGRFTISRDNAKNTVYLQMNSLKPEDTAVYYCSARWYLTGGWTWVSFSHDYWGQGTQVTVSS | low polyreactivity
QVQLVESGGGLVQAGGSLRLSCAASGRTFKDYAMGWDIQEPGKERELVAAISWSGGDTYYADSVKGRFTISRDNAKNTVYLQMNSLKPEDTAVYYCNADPSGVFFYSLEFDYWGQGTQVTVSS | low polyreactivity
QVQLVESGGGLVQAGGSLRLSCAASGRTFLSYTMGWYRQAPGKERELVAAITTSGGSTNYADSVKGRFTISRDNAMNNVYLQMNSLKPEDTAVYYCADEWSVYFNDPRSDYWGQGTQVTVSS | high polyreactivity
QVQLVESGGGLVQAGGSLRLSCAAAGRTIRRIAMGWYRQAPGKERELVAAISKSGGRTYYADSVKGRFTISRDKAKKTVYLQMNSMKPEDTAVYYCGAYDTVYNSGDYDYWGQGTQVTVSS | high polyreactivity
QVQLVESGGGLVQAGGSLRLSCAASGLTIWRYALGWYRQAPGKEREFVATISQNGGRTYYADSVKGRFTISRDNAKNTVYVQMNSLKPEDTAVYYCADDDWRWGYDYWGQGTQVTVSS | high polyreactivity

Sequence | polyreactivity (PSR sort gate)
QVQLVESGGGLVQAGGSLRLSCAASGITFYPYAMGWYRQAPGKERELVAAISRRGGSTNYADSVKGRFTISRDNAKNTVYLQMNSLKPEDTAVYYCNRDYPIGYRQDPVYYWGQGSQVTVSS | high polyreactivity
QVQLVESGGGLVQAGGSLRLSCAASGRIFPYYAMGWSRQAPGKEREFVAAITKRGGSTSYADSVKGRFTISRDNAKNTVYLQMNSLKPQDTAVYYCNARLYRGQDRYDYWGQGTQVTVSS | low polyreactivity
QVQLVESGGGLVQAGGSLRLSCAASGRTFSHNAMGWYRQAPGKERELVATINSGGSTYADSVKGRFTISRDNAKNTVYLQMNSLKPEDTAVYYCNAAHGSRAFFGGYDYWGQGTQVTVSS | high polyreactivity
QVQLVESGGGLVQAGGSLRLSCAASGSIFWVYAMGWYRQAPGKEREFVATISTDGGSTHYADSVKGRFTISRDNAKNTFYLQMNSLKPEDTAVYYCAADTPWYDDNYDYWGQGTQVTVSS | low polyreactivity
QVQLVESGGGLVQAGGSLRLSCAASGITFAYYAMGWYRQAPGKERELVAAITGDGGSTYYADSVKGRFTISRDNAKNTVYLQMNSLKPEDTAVYYCNAELSDYRYDWWDYDYWGQGTQVTVSS | high polyreactivity
QVQLVESGGGLVQAGGSLPLSGAPSGSTFGYNTMGWSRQAPGKESELVAAITSGGRTYYADSVKGRFTISRDNAKNTVYLQRNSLKPEDTAVYYCAAYYWWGYPENDYWVQGTQVTVSS | high polyreactivity
QVQLEESGGGLVQAGGSLRLSCAASGFTFRAYAMGWYRQAPGKERELVAANTYSGDRTYYADSVKGRFTITRDNAKKTVYLQMNSLKPEDTAVYYCAAYGAKVNRPGYYYWGQGTQVTVSS | high polyreactivity
QVQLVESGGGLVQAGGSLRLSCAAYGFIFPGNAMGWYIQAPGKERELVAAISNSGSRTYYADSVKGRFTISRDNAKNTVYLQMNSLKPEDTAVYYCNADVHNRGWPYDYWGQGTQVTVSS | low polyreactivity
QVQLVESGGGLVQAAGSLRLSCAASGLTFRVNDMGWYRQAPGKERELVATISSGGSTYYADSVKGRFTISRDNAKNTVYLQMNSLKAVDTAVYYCATNSEGQESNSYYVWMGYWGQGTKVTVSS | low polyreactivity
QVQLVESGGGLVQAGGSLRLSCAASGGIFDYNAMGWYRQAPGKERELVAAITNGGSTNYADSVKGRFTISRDNAKNSVYLQMNSLKPEDTAVYYCATGYFYDYWGQGTQVTVSS | low polyreactivity
QVQLVESGGGIDQAGGSLRLSCAASGSTFPRYAMGWYRQAPGKERELVAAISRSGGSTYYADSVKWRFTISRDNAKNTVDLQMNCLKPEDTAVYYCAGRYERGSYKYDYWGQGTEVTVSS | high polyreactivity
QVQLVESGGGLVQAGGSLRLSCAASGNIFWRYGMGWYRQAPGKERELVAAITSGGTGTYYADSVKGRFTISRDNAKNTVYLQMNSLKPEDTAVYYCAARRWTNHYFYGWFYYWGQGTQVTVSS | high polyreactivity
QVQLVESGGGLVQAGGSLRLSCAASGSTFSIYAMGWYRQAPGKERELVAAISGSGSRTYYADSVKGRFTISRDNAKNTVYLQMNSLKPEDTAVYYCAARGRHRDGFDFNYWGQGTQVTVSS | high polyreactivity
QVQLVESGGGLVQAGGSLRLSCAASGSIFRSNAMGWYRQAPGKEREFVAAITSRSSSTYYADSVKGRFTISRDNAKNTVYLQMNSLKPEDTAVYYCAARYQHYFTGGDYWGQGTQVTVSS | low polyreactivity
QVQLVESWGGLVQAGGSLRLSCAASGSTFTPYVMGWSRQAPGKERELVAAISKRGGSTYYADSVKGRFTISRDNANNSVYLQMNSLKPADTAVYYCAAVQPAWGNGYWGQGTQVTVSS | high polyreactivity
QVQLVESGGGLVQAGGSLRLSCAASGFTFHKNAMGWYRQAPGKERELVAAITYRGGSTSYADSVKGRFTISRDNAKNTFYLQMNSLKPEDTAVYYCAAELRPYITYDGPRKKFYYWGQGTQVTVSS | high polyreactivity
QVQLVESGGGLVQAGGSLRLSCAASGSIFPHYAMGWSRQAPGKERELVSAISSGGRTYYADSVKGRFTISRDNAKNTVYLQMNSLKPEDTAVYYCAARRIARKGYGYWGQGTQVTVSS | high polyreactivity
QVQLEESGGSIVQAGGSLRLSCAASGYTFLGNAMGWYRKAPGKERELVAAISSGGTTFYADSVMGRFTISRDNAKNTVYLQMNSLNPEDTAVYYCAAKDTTVFYYDDDYWGQGTQVTVSS | low polyreactivity
QVQLVESGGGLVQAGGSLRLSCAASGSTLVFYAMGWYRQAPGKERELVAAIDSDGGTYYADSVKGRFTISRDNAKNTVYLQMNSLKPEDTAVYYCNAAGALIFGEGYYVEYDYDYWGQGTQVTVSS | low polyreactivity
QFQLVESGGGLVQAGGSLRLSCAASGRTFRYYTMGWYRQAPGKEREFVAVITVNGGSTYYADSVKGRFTISRDNAKNTVYLQMNSLKPEDTAVYYCAKSYGSRHRYWPLYYWGQGTQVTVSS | high polyreactivity
QVQLVESGGGLVQAGGSLRLSCAASGSIFGYYSMGWYRQATGKERELVATITWGGGSTYADSVKGRFTISRDNAKNTVYLQMNSLKPEDTAVYYCNAGYRYTSAQVTWEYDYWGQGTQVTVSS | low polyreactivity
